Test results from patent US20210338158A1, “MEASUREMENT SYSTEM” (WearOptimo Pty Ltd, published 2021).

Experiments:
bovine serum albumin = bovine serum albumin (Bos taurus, UniProt P02769 P02769:25-607); assay: AC voltammetry specificity control; 50 ng/mL BSA in PBS gave little change on aptamer-functionalised gold disk electrode; conditions: label: methylene blue
[1] = target: recombinant troponin I (cardiac troponin I) (UniProt P19429 P19429:2-210); assay: AC voltammetry; MB redox current decreases on troponin I exposure; aptamer immobilised on gold microstructures in perfused pig skin (600 ng/mL perfusate) and on gold disk electrode in 150 mM PBS pH 7.4; conditions: label: methylene blue
recombinant troponin I (cardiac troponin I), sequence (P19429 2-210, one chain of several): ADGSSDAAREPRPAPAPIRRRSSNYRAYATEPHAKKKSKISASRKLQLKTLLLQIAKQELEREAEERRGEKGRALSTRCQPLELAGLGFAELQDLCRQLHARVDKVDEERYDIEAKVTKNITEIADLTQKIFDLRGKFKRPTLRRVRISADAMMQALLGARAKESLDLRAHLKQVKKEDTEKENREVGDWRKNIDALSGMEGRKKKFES

bovine serum albumin, sequence (P02769 25-607, one chain of several): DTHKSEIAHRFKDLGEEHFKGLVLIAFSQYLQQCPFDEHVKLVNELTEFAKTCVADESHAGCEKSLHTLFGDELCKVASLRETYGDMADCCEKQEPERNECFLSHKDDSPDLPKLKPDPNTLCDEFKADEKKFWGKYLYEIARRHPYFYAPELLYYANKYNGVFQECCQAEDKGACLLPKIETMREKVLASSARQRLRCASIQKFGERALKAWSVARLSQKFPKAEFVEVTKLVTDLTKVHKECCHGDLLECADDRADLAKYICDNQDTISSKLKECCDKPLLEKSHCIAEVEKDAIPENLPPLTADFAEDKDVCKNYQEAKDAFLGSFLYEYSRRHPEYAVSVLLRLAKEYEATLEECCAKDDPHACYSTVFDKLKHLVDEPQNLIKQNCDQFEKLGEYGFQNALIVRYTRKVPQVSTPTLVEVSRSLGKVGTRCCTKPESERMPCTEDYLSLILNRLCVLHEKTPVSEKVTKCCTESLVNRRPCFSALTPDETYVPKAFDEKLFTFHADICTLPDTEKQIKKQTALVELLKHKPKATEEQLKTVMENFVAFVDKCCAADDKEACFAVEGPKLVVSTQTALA

B1: troponin I aptamer (thiol/methylene blue) (ssDNA)
DNA: AGTCTCCGCTGTCCTCCCGATGCACTTGACGTATGTCTCACTTTCTTTTCATTGACATGGGATGACGCCGTGACTG
modifications: 5'-SH-(CH2)6, 3'-methylene blue
binding result (bovine serum albumin): no binding | binding result [1]: binds
